# “Also recorded” adds a separate entry of the source.
# Assay: Cell lysate reaction of pMT enzymes with psi-ionone, irones quantified by HS-SPME-GCMS
# Type: biochemical
# Conditions: for irone production / methyltransferase activity towards psi-ionone (in words): cell lysate reaction, vs parent or control; for cis-α-irone content (percentage of cis-α-irone in the irone mixture): cell extracts with psi-ionone; for fold change in cis-α-irone produced: AUC vs non-mutated (=1)
# Description: Using the structure of pMT1 in complex with the cofactor S-adenosyl-L-homocysteine (SAH) and the substrate teleocidin A1 (PDB id: 5GM2) as a template, pMT1 bound to each of the four isomers of α-irone was modelled with the aim of identifying amino acid residues that could be critical to increase cis-α-irone or decrease trans-α-irone production (FIGS. 2d and 2e). […] Site-directed mutagenesis of the 24 residues was carried out with degenerative primers. Subsequently, the mutants of each site were pooled together, and examined if the activity or product-selectivity of the pooled mutants were increased (FIG. 8). This reduced the number of screening reactions to 24, which is manageable when a high-throughput enzymatic assay is not available. […] One residue was chosen and subjected to site-saturation mutagenesis by using degenerative primers containing NNN or NNK. The plasmid library was then transformed into E. coli BL21 (DE3) cells and plated on agar plate containing autoinduction media^19. […] Subsequently, the colonies were collected and resuspended in phosphate saline buffer. Equal number of cells was taken for lysis and cell lysate reactions were carried out in capped SPME-GC vials at 28° C. for 2 days. HS-SPME-GCMS analysis was used to quantify the amount of irones produced by each pooled-colony reaction. […] 24 residues including the control Gly85 (G85m) were subjected to site-saturation mutagenesis, using pMT1 as the template. […] The amount of cis-α-irone produced was estimated based on the area under the gas chromatogram curve (AUC). The fold change is calculated by comparing the AUC of cis-α-irone produced by the mutant enzyme to that of non-mutated.
# For each pMT mutant, it was transformed into BL21 and grown in autoinduction media with 5 mM lactose at 20° C. for 36 hrs. Then, cells were pelleted and concentrated 10 times by adding 1 ml of PBS. The OD600 was measured and 40*600 OD*ul cells were transferred into a new 1.5 ml tube. The cells were spun down and resuspended in 600 μl of lysis buffer (1×DNase buffer, 150 mM NaCl, 0.5% glycerol, 1 mg/ml lysozyme and 20U of DNasel). The cells were incubated for 2 hrs at 20° C. with shaking at 300 rpm. Following that, 2 cycles of freeze-thaw was done to completely lyse the cells. At the end of the 2nd thawing, the cell lysate was used to setup a 1 ml reaction in 2 ml GC vials. The reaction consisted of 50 mM Tris (pH7), 10 mM MgCl2, 60 mM NaCl, 0.2 mM SAM and 10 mg/L of psi-ionone and caryophyllene each. To this, 500 μl of cell lysate was added while the remaining 100 μl was used for SDS-PAGE to analyze the total and soluble protein expression. The reaction was incubated for 2 days at 28° C., 300 rpm prior to extraction of cis-α-irone with 500 μl hexane. From this, 20 μl of organic layer was taken into 180 μl hexane for GCMS analysis.
# For the mutant pMT activity screening, the reactants and products were analyzed by head space solid phase microextraction (HS-SPME) coupled with an Agilent 5977B gas chromatography (GC) system equipped with Agilent DB-5 ms column (30 m×250 μm×0.25 μm) and mass spectrometry (MS) with high efficiency source. The reaction mixtures were carried out in SPME vials which were incubated at 60° C. for 20 mins to allow the release of volatile compounds. The absorbent fiber (50/30 μm divinylbenzol/carboxen/polydimethyl-SPME fiber, SUPELCO) was then exposed to the headspace of the vial for 20 mins. The extracted analytes were desorbed at the GC inlet at 250° C. for 1 min and injected into GC with a split ratio of 200:1. The GC oven temperature increased from 50° C. to 140° C. at a rate of 10° C./min and held at 140° C. for 10 min. Subsequently, the temperature was increased to 320° C. at a rate of 60° C./min and held at 320° C. for 2 mins.
molecule,measurement,setting,value
"pMT11: pMT1 with Y200F S182E L273V L180A A202L Y65F C156D T91P (protein, Modified from pMT1, pMT1 with Y200F S182E L273V L180A A202L Y65F C156D T91P) MPQEARTPQQQVTADEVGDWYDKFGEVYHLTLGESVHCGLWFPPDAPVPQDMELVTMSSQAQDRFTDYLIETLDPKAGQHLLDIGCGTGRPALKAARQRGIAVTGVAVSKEQIAAANRLAAGHGLTERLTFEVADAMRLPYEDESFDCAWAIESLDHMDRAKALGEAWRVLKPGGDLLVAEEVVTEELTEPETALFETLFALNVPPRLGEFFDIVSGAGFHTLSLKDLSANLAMTMNVFALGVYSRRAEFTERFGAEFVDGLLAGLGSAQETVIRKTRFFMATLRKPAV",irone production / methyltransferase activity towards psi-ionone (in words),,improved cis-α-irone production both by the fold change and percentage
"pMT13: pMT12 with Y244A S245A G267P (protein, Modified from pMT1, pMT12 with Y244A S245A G267P) MPQEARTPQQQVTADEVGDWYDKFGEVYHLTLGESVHCGLWFPPDAPVPQDMELVTMSSQAQDRFTDYLIETLDPKAGQHLLDIGCGTGRPALKAARQRGIAVTGVAVSKEQIAAANRLAAGHGLTERLTFEVADAMRLPYEDESFDCAWAIESLDHMDRAKALGEAWRVLKPGGDLLVAEEVVTEELTEPETALFETLFALNVPPRLGEFFDIVSGAGFHTLSLKDLSADLAMTMNVFALGVAARRAEFTERFGAEFVDGLLAGLPSAQETVIRKTRFFMATLRKPAV",irone production / methyltransferase activity towards psi-ionone (in words),,maintained the percentage of cis-α-irone produced while further improving the absolute amount produced
"pMT14: pMT13 with E197R (protein, Modified from pMT1, pMT13 with E197R) MPQEARTPQQQVTADEVGDWYDKFGEVYHLTLGESVHCGLWFPPDAPVPQDMELVTMSSQAQDRFTDYLIETLDPKAGQHLLDIGCGTGRPALKAARQRGIAVTGVAVSKEQIAAANRLAAGHGLTERLTFEVADAMRLPYEDESFDCAWAIESLDHMDRAKALGEAWRVLKPGGDLLVAEEVVTEELTEPETALFRTLFALNVPPRLGEFFDIVSGAGFHTLSLKDLSADLAMTMNVFALGVAARRAEFTERFGAEFVDGLLAGLPSAQETVIRKTRFFMATLRKPAV",irone production / methyltransferase activity towards psi-ionone (in words),,reduced the fold change of cis-α-irone to a similar level as pMT10
"P191S: pMT12 with P191S (protein, Modified from pMT1) MPQEARTPQQQVTADEVGDWYDKFGEVYHLTLGESVHCGLWFPPDAPVPQDMELVTMSSQAQDRFTDYLIETLDPKAGQHLLDIGCGTGRPALKAARQRGIAVTGVAVSKEQIAAANRLAAGHGLTERLTFEVADAMRLPYEDESFDCAWAIESLDHMDRAKALGEAWRVLKPGGDLLVAEEVVTEELTESETALFETLFALNVPPRLGEFFDIVSGAGFHTLSLKDLSADLAMTMNVFALGVYSRRAEFTERFGAEFVDGLLAGLGSAQETVIRKTRFFMATLRKPAV",in-vitro production of cis-α-irone (in words),single mutations vs parent (pMT7 or pMT12),moderate increase
"pMT3: pMT1 with Y200F S182E (protein, Modified from pMT1, pMT1 with Y200F S182E) MPQEARTPQQQVTADEVGDWYDKFGEVYHLTLGESVHCGLWFPPDAPVPQDMELVTMSSQAQDRYTDYLIETLDPKAGQHLLDIGCGTGRTALKAARQRGIAVTGVAVSKEQIAAANRLAAGHGLTERLTFEVADAMRLPYEDESFDCAWAIESLCHMDRAKALGEAWRVLKPGGDLLVLEEVVTEELTEPETALFETLFAANVPPRLGEFFDIVSGAGFHTLSLKDLSANLAMTMNVFALGVYSRRAEFTERFGAEFVDGLLAGLGSAQETLIRKTRFFMATLRKPAV",cis-α-irone content (percentage of cis-α-irone in the irone mixture),,74%
same,irone production / methyltransferase activity towards psi-ionone (in words),,significant increase in cis-α-irone was detected; also recorded: predominantly 1R5S was produced
same,fold change in cis-α-irone produced,pMT2_S182 mutants,5.4
same,fold change in cis-α-irone produced,pMT3_E153 mutants,1.0
same,fold change in cis-α-irone produced,pMT3_L273 mutants,1.0
same,improvement of total turnover number (TTN),"vs pMT1, TTN = cis-α-irone produced / soluble pMT enzyme","more than 1,000 fold"
"pMT4: pMT1 with Y200F S182E L273V (protein, Modified from pMT1, pMT1 with Y200F S182E L273V) MPQEARTPQQQVTADEVGDWYDKFGEVYHLTLGESVHCGLWFPPDAPVPQDMELVTMSSQAQDRYTDYLIETLDPKAGQHLLDIGCGTGRTALKAARQRGIAVTGVAVSKEQIAAANRLAAGHGLTERLTFEVADAMRLPYEDESFDCAWAIESLCHMDRAKALGEAWRVLKPGGDLLVLEEVVTEELTEPETALFETLFAANVPPRLGEFFDIVSGAGFHTLSLKDLSANLAMTMNVFALGVYSRRAEFTERFGAEFVDGLLAGLGSAQETVIRKTRFFMATLRKPAV",cis-α-irone content (percentage of cis-α-irone in the irone mixture),,~80%
same,irone production / methyltransferase activity towards psi-ionone (in words),,highest cis-α-irone and lowest trans-α-irone production
same,fold change in cis-α-irone produced,pMT3_L273 mutants,1.5
same,fold change in cis-α-irone produced,pMT4_L180 mutants,1
same,fold change in cis-α-irone produced,pMT4_T277 mutants,1.0
"SaMT: methyltransferase from Streptomyces albireticuli, about 68% sequence identity to pMT1 (protein, listed as Streptomyces albireticuli) MPQESAQELKVTADEVGDWYDRFGDIYHETLGESVHCGLWFPPDEPHPTSMDLVDLSSRAQDRYTDYLIETLDPRPGDHVLDIGCGTGRSALRLVQQRDARVTGVAISKEQIARADRLANEHGLTDRLTFAYADAQALPYEDGTFDRAWAVESICHMDRAKALQEAWRVLRPGGDLMVLESVLTGELTAEDTAVFQVMLASNLPPTLPEFFGLVGDAGFETLELKDLSANLAMTMNVMALVCHDRKEEFTERFGAEFMEGVVQGLPKAREVVARKTRFFLVMLRKPLA",irone production / methyltransferase activity towards psi-ionone (in words),,converted psi-ionone to predominantly trans-α-irone
"ScMT: about 66% homologous enzyme from Streptomyces clavuligerus (protein, listed as Streptomyces clavuligerus) MPQELAGELRVTAAQVGAWYDQFGDIYHQTLGESIHCGLWFPPDEPHPARVDLVSLSSEAQDRFTDYLIKTLDPHADQHVLDIGCGTGRSALRLSQQRGAKVTGVAISKVQIEHANRLAETHDLSDRLVFEHADAMHLPYEDESFDSAWAIESLCHMDRAKALREAYRVLRPGGDFLLLESVLTNPLTEAEATSLDTMLAANTPLWLPEFFELITRAGFETLELKDLSANLAMTMNVLELVCHDRREEFTRRFGAEFTELLMAGLPEARNITARKTRFFMLLLRKPPVPAN",irone production / methyltransferase activity towards psi-ionone (in words),,not active towards psi-ionone

# From US20240240209A1, “SYNTHESIS OF ENANTIOPURE CIS-A-IRONE FROM A RENEWABLE CARBON SOURCE” (Agency for Science, Technology and Research, priority 2021, published 2024)
